# Tests used:
# [1] = substrate: CC(=O)N[C@@H](CS)C(=O)N[C@H]1[C@@H](O[C@@H]2[C@H](O)[C@H](O)[C@@H](O)[C@H](O)[C@H]2O)O[C@H](CO)[C@@H](O)[C@@H]1O; conditions: Mycobacterium tuberculosis
# Description: Binding affinity to Mycobacterium tuberculosis MST assessed as Km by differential scanning fluorimetry method
# [2] = substrate: CC(=O)N[C@@H](CS)C(=O)N[C@H]1[C@@H](O[C@@H]2[C@H](O)[C@H](O)[C@@H](O)[C@H](O)[C@H]2O)O[C@H](CO)[C@@H](O)[C@@H]1O; conditions: Mycobacterium tuberculosis; remark: listed apart in the source
# Description: Binding affinity to Mycobacterium tuberculosis MST assessed as Km in presence of zinc
protein,measurement,setting,value
"Conserved protein (Mycobacterium tuberculosis), O53728 (protein) MASTDAAAQELLRDAFTRLIEHVDELTDGLTDQLACYRPTPSANSIAWLLWHSARVQDIQVAHVAGVEEVWTRDGWVDRFGLDLPRHDTGYGHRPEDVAKVRAPADLLSGYYHAVHKLTLEYIAGMTADELSRVVDTSWNPPVTVSARLVSIVDDCAQHLGQAAYLRGIAR",Km,[1],18.4 µM
same,Km,[2],9.8 µM

# — ChEMBL document CHEMBL5252635, “The Mycobacterium tuberculosis mycothiol S-transferase is divalent metal-dependent for mycothiol binding and transfer” (2023)
